Measured values from paper PMC8153938 (ACS Omega, 2021).

Tests used:
[1] = biological target: Unphosphorylated human Protein kinase R (PKR), wild type (human) (UniProt P19525); test: AUC
AUC = biological target: the molecule itself; test: AUC

| Kd [1] [µM] | Molecule | Kd (AUC) [µM] |
| --- | --- | --- |
| 702 | Unphosphorylated human Protein kinase R (PKR), wild type (from UniProt P19525 1-551) (enzyme) | – |
| – | PKR R107A (enzyme, human, UniProt P19525 1-551, looked up) MAGDLSAGFFMEELNTYRQKQGVVLKYQELPNSGPPHDRRFTFQVIIDGREFPEGEGRSKKEAKNAAAKLAVEILNKEKKAVSPLLLTTTNSSEGLSMGNYIGLINAIAQKKRLTVNYEQCASGVHGPEGFHYKCKMGQKEYSIGTGSTKQEAKQLAAKLAYLQILSEETSVKSDYLSSGSFATTCESQSNSLVTSTLASESSSEGDFSADTSEINSNSDSLNSSSLLMNGLRNNQRKAKRSLAPRFDLPDMKETKYTVDKRFGMDFKEIELIGSGGFGQVFKAKHRIDGKTYVIKRVKYNNEKAEREVKALAKLDHVNIVHYNGCWDGFDYDPETSDDSLESSDYDPENSKNSSRSKTKCLFIQMEFCDKGTLEQWIEKRRGEKLDKVLALELFEQITKGVDYIHSKKLIHRDLKPSNIFLVDTKQVKIGDFGLVTSLKNDGKRTRSKGTLRYMSPEQISSQDYGKEVDLYALGLILAELLHVCDTAFETSKFFTDLRDGIISDIFDKKEKTLLQKLLSKKPEDRPNTSEILRTLTVWKKSPEKNERHTC | 704 |
